For 17 molecules, He/Con_1a, He/Con_2b and He/Con_2aH results are on record in US20180155451A1 (published 2018).

B1: GpH7-A5/GpH7-B3 variant I332_04F/GpL16-k0 (antibody, human IgG1, kappa)
heavy 1: not shown
heavy 2: not shown
light: DIVMTQSPLSLPVTPGEPASISCQASESLVHSNRNTYLHWYLQKPGQSPQLLIYKVSNRFSGVPDRFSGSGSGTDFTLKISRVEAEDVGVYYCSQNTHVPPTFGQGTKVEIERTVAAPSVFIFPPSDEQLKSGTASVVCLLNNFYPREAKVQWKVDNALQSGNSQESVTEQDSKDSTYSLSSTLTLSKADYEKHKVYACEVTHQGLSSPVTKSFNRGEC
notes: heterodimerized IgG1; alteration in the GpH7-B3 H chain only; also called He Ab
B2: GpH7-A5/GpH7-B3 variant I332_02A/GpL16-k0 (antibody, human IgG1, kappa)
heavy 1: not shown
heavy 2: not shown
light: B1 light
notes: as for B1
B3: GpH7-A5/GpH7-B3 variant I332_15Y/GpL16-k0 (antibody, human IgG1, kappa)
heavy 1: not shown
heavy 2: not shown
light: B1 light
notes: as for B1
B4: GpH7-A5/GpH7-B3 variant I332_14T/GpL16-k0 (antibody, human IgG1, kappa)
heavy 1: not shown
heavy 2: not shown
light: B1 light
notes: as for B1
B5: GpH7-A5/GpH7-B3 variant I332_06M/GpL16-k0 (antibody, human IgG1, kappa)
heavy 1: not shown
heavy 2: not shown
light: B1 light
notes: as for B1
B6: GpH7-A5/GpH7-B3 variant E333_04F/GpL16-k0 (antibody, human IgG1, kappa)
heavy 1: not shown
heavy 2: not shown
light: B1 light
notes: Heterodimerized anti-glypican-3 IgG1; substitution in only one H chain (the GpH7-B3 chain); also called He Ab
B7: GpH7-A5/GpH7-B3 variant E333_08L/GpL16-k0 (antibody, human IgG1, kappa)
heavy 1: not shown
heavy 2: not shown
light: B1 light
notes: as for B6
B8: GpH7-A5/GpH7-B3 variant E333_13S/GpL16-k0 (antibody, human IgG1, kappa)
heavy 1: not shown
heavy 2: not shown
light: B1 light
notes: as for B6
B9: GpH7-A5/GpH7-B3 variant E333_09D/GpL16-k0 (antibody, human IgG1, kappa)
heavy 1: not shown
heavy 2: not shown
light: B1 light
notes: as for B6
B10: GpH7-A5/GpH7-B3 variant T335_01G/GpL16-k0 (antibody, human IgG1, kappa)
heavy 1: not shown
heavy 2: not shown
light: B1 light
notes: as for B6
B11: GpH7-A5/GpH7-B3 variant T335_06M/GpL16-k0 (antibody, human IgG1, kappa)
heavy 1: not shown
heavy 2: not shown
light: B1 light
notes: as for B6
B12: GpH7-A5/GpH7-B3 variant I336_03V/GpL16-k0 (antibody, human IgG1, kappa)
heavy 1: not shown
heavy 2: not shown
light: B1 light
notes: as for B6
B13: GpH7-A5/GpH7-B3 variant I336_18N/GpL16-k0 (antibody, human IgG1, kappa)
heavy 1: not shown
heavy 2: not shown
light: B1 light
notes: as for B6
B14: GpH7-A5/GpH7-B3 variant E333_14T/GpL16-k0 (antibody, human IgG1, kappa)
heavy 1: not shown
heavy 2: not shown
light: B1 light
notes: as for B6
B15: GpH7-A5/GpH7-B3 variant T335_05P/GpL16-k0 (antibody, human IgG1, kappa)
heavy 1: not shown
heavy 2: not shown
light: B1 light
notes: as for B6
B16: GpH7-A5/GpH7-B3 variant T335_02A/GpL16-k0 (antibody, human IgG1, kappa)
heavy 1: not shown
heavy 2: not shown
light: B1 light
notes: as for B6
B17: GpH7-A5/GpH7-B3 variant I336_10E/GpL16-k0 (antibody, human IgG1, kappa)
heavy 1: not shown
heavy 2: not shown
light: B1 light
notes: as for B6

In one assay the target is T1, FcγRIa (human, UniProt P12314 16-292).
T1 construct: extracellular domain; also called FcgRI; 1a; not shown: His tag at the C terminus
T1 sequence (P12314 16-292): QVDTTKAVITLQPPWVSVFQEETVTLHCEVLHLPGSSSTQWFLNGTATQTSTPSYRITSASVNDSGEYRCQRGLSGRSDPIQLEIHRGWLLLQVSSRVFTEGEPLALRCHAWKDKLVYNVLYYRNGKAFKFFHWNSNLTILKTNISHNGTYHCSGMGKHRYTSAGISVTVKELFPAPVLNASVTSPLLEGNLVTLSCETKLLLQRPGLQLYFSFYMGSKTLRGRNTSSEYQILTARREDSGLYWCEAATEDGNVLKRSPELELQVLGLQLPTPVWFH
Nature of the assay: SPR (Biacore), antibody captured, FcγR as analyte; binding as % of GpH7-A5/GpH7-B3/GpL16-k0. A general note: Surface plasmon resonance follows binding to a sensor surface in real time, without labels.
As for B1, the He/Con_1a was 93.6 % of control.
In the case of B2, the He/Con_1a was 88.3 % of control.
For the molecule B3, the He/Con_1a is 88.8 % of control.
For B4, the He/Con_1a is 91.8 % of control.
For the molecule B5, the He/Con_1a is 92.3 % of control.

Another assay deals with T2, FcγRIIb (human, UniProt P31994 43-217).
T2 construct: extracellular domain; also called FcgRIIb; 2b; not shown: His tag at the C terminus
T2 sequence (looked up): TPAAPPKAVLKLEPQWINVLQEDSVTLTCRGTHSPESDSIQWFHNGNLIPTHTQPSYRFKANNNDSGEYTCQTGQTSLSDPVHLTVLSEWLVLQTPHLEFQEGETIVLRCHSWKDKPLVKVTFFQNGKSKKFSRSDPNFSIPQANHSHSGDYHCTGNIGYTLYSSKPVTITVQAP
The assay is described as above.
As for B1, the He/Con_2b was 104 % of control.
B2: the He/Con_2b was 103 % of control.
In the case of B3, the He/Con_2b is 101 % of control.
For B4, the He/Con_2b was 106 % of control.
Take B5: the He/Con_2b is 105 % of control.

Another assay addresses T3, FcγRIIa H (human, UniProt P12318 34-217).
T3 construct: extracellular domain; also called FcgRIIa H type; 2aH
T3 sequence (looked up): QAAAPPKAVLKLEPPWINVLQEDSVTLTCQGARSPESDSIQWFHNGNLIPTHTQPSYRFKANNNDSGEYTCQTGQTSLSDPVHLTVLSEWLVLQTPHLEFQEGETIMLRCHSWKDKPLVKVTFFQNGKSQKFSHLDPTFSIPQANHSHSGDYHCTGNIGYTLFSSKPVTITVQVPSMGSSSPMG
Nature of the assay: SPR (Biacore), antibody captured on antigen-peptide chip, FcγR as analyte; binding relative to GpH7-A5/GpH7-B3/GpL16-k0 = 100.
As to B6, the He/Con_2aH is 102 % of HeCon Ab.
Take B7: the He/Con_2aH was 102 % of HeCon Ab.
The same measure, in the same setting: the value for B8 was 101 % of HeCon Ab; that for B9 was 103 % of HeCon Ab; that for B10 was 103 % of HeCon Ab.
Turning to B11, the He/Con_2aH was 103 % of HeCon Ab.
With B12, the He/Con_2aH was 102 % of HeCon Ab.
Take B13: the He/Con_2aH is 103 % of HeCon Ab.
On to B14, for which the He/Con_2aH is 100 % of HeCon Ab.
For B15, the He/Con_2aH is 108 % of HeCon Ab.
On to B16, for which the He/Con_2aH is 101 % of HeCon Ab.
Take B17: the He/Con_2aH was 102 % of HeCon Ab.

Another assay has as its target T4, FcγRIIb (human, UniProt P31994 43-217).
T4 construct: extracellular domain; also called FcgRIIb; 2b
T4 sequence (looked up): T2 sequence (looked up)
Described as above.
For B6, the He/Con_2b was 94.6 % of HeCon Ab.
B7: the He/Con_2b is 95 % of HeCon Ab.
Consider B8, for which the He/Con_2b was 81.8 % of HeCon Ab.
As for B9, the He/Con_2b was 94.3 % of HeCon Ab.
On to B10, for which the He/Con_2b was 96.7 % of HeCon Ab.
Consider B11, for which the He/Con_2b was 99.4 % of HeCon Ab.
With B12, the He/Con_2b is 90.3 % of HeCon Ab.
The same measure, in the same setting: the result for B13 reads 97.6 % of HeCon Ab.
On to B14, for which the He/Con_2b is 86.1 % of HeCon Ab.
For B15, the He/Con_2b is 99.9 % of HeCon Ab.
For B16, the He/Con_2b was 94 % of HeCon Ab.
B17: the He/Con_2b was 89.8 % of HeCon Ab.
